# According to the supplement of paper PMC7877785:
# ± gives the uncertainty stated by the source.
# Test: self-splicing fitness, log relative to wild type (ln ratio); higher = more splicing; Tetrahymena group I intron in knt gene, E. coli kanamycin selection, DiMSum; sequences stand for … in CUCUCU…GGAGGGAAAAGUUAUCAGGCAUGCACCUGGUAGCUAGUCUUUAAACCAAUAGAUUGCAUCGGUUUAAAAGGCAAGACCGUCAAAUUGCGGGAAAGGGGUCAACAGCCGUUCAGUACCAAGUCUCAGGGGAAACUUUGAGAUGGCCUUGCAAAGGGUAUGGUAAUAAGCUGACGGACAUGGUCCUAACCACGCAGCCAAGUCCUAAGUCAACAGAUCUUCUGUUGAUAUGGAUGCAGUUCACAGACUAAAUGUCGGUCGGGGAAGAUGUAUUCUUCUCAUAAGAUAUAGUCGGACCUCUCCUUAAUGGGAGCUAGCGGAUGAAGUGAUGCAACACUGGAGCCGCUGGGAACUAAUUUGUAUGCGAAAGUAUAUUGAUUAGUUUUGGAGUACUCGUGGUCG
# Outline: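 The eight P1ex-region nucleotides of an intron in the knt kanamycin-resistance gene on pET-22b(+) were all randomised and the library put into E. coli BL21(DE3). Six replicate transformations were grown overnight at 37°C or 30°C on LB agar with or without 25 μg/mL kanamycin, together with 100 μg/mL carbenicillin, 50 μM IPTG and 0.2% rhamnose. Colonies were pooled and amplicon-sequenced on an Illumina HiSeq 2500. Fitness from DiMSum is the error-weighted combination of wild-type-normalised replicate fold changes, kanamycin over none.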
Sequence,self-splicing fitness (ln) (30 °C),self-splicing fitness (ln) (37 °C)
GGAAAGCAAUAUUACGAUGG,-3.14 ± 0.22,-2.39 ± 0.21
GGAAAGCAAUAUUACGCAUA,-0.868 ± 0.1,-1.5 ± 0.12
GGAAAGCAAUAUUACGCGAG,-0.597 ± 0.1,0.758 ± 0.1
GGAAAGCAAUAUUACGCGUU,-3.16 ± 0.16,-2.49 ± 0.19
GGAAAGCAAUAUUACGCUAU,-2.74 ± 0.28,-2.11 ± 0.21
GGAAAGCAAUAUUACGCUGC,-3.32 ± 0.38,
GGAAAGCAAUAUUACGGAUU,-1.93 ± 0.085,-0.946 ± 0.11
GGAAAGCAAUAUUACGGCAC,-0.927 ± 0.12,-0.0107 ± 0.14
GGAAAGCAAUAUUACGGGCU,-1.29 ± 0.12,-0.815 ± 0.18
GGAAAGCAAUAUUACGUAUC,-2.09 ± 0.18,-1.01 ± 0.15
GGAAAGCAAUAUUACGUCAU,-2.34 ± 0.18,-1.38 ± 0.18
GGAAAGCAAUAUUACGUCCU,-3.68 ± 0.21,-1.14 ± 0.14
GGAAAGCAAUAUUACGUCUG,-0.579 ± 0.054,0.2 ± 0.07
GGAAAGCAAUAUUACGUCUU,-0.00168 ± 0.13,-0.112 ± 0.15
GGAAAGCAAUAUUACGUGCU,-1.11 ± 0.089,-0.467 ± 0.096
GGAAAGCAAUAUUACGUUGU,-4.15 ± 0.23,-2.19 ± 0.15
GGACAGCAAUAUUACGACGA,-1.77 ± 0.16,-0.403 ± 0.19
GGACAGCAAUAUUACGACGG,-2.69 ± 0.28,-2.16 ± 0.36
GGACAGCAAUAUUACGAGAU,-3.03 ± 0.14,-1.45 ± 0.13
GGACAGCAAUAUUACGAUUU,0.167 ± 0.047,0.417 ± 0.065
GGACAGCAAUAUUACGCACU,-1.12 ± 0.086,-0.6 ± 0.13
GGACAGCAAUAUUACGCUUG,-1.45 ± 0.094,-0.762 ± 0.11
GGACAGCAAUAUUACGGAUA,-1.13 ± 0.11,-1.51 ± 0.093
GGACAGCAAUAUUACGGCCU,-2.3 ± 0.13,-1.13 ± 0.12
GGACAGCAAUAUUACGGGAC,-1.56 ± 0.13,-1.98 ± 0.19

Sequence,self-splicing fitness (ln) (30 °C),self-splicing fitness (ln) (37 °C)
GGACAGCAAUAUUACGGGUC,-3.54 ± 0.23,-2.56 ± 0.26
GGACAGCAAUAUUACGGUCG,-1.1 ± 0.092,-0.39 ± 0.14
GGACAGCAAUAUUACGUAUU,-0.426 ± 0.049,-0.492 ± 0.068
GGACAGCAAUAUUACGUCGC,-3.12 ± 0.18,0.343 ± 0.15
GGACAGCAAUAUUACGUCGU,-1.45 ± 0.071,-0.405 ± 0.075
GGAGAGCAAUAUUACGAAAU,,-2.48 ± 0.48
GGAGAGCAAUAUUACGACGC,-0.0524 ± 0.081,-0.0426 ± 0.092
GGAGAGCAAUAUUACGACGG,-2.35 ± 0.29,-2.17 ± 0.36
GGAGAGCAAUAUUACGAGAC,-2.12 ± 0.22,-1.88 ± 0.35
GGAGAGCAAUAUUACGAUCU,,-2.47 ± 0.29
GGAGAGCAAUAUUACGAUGG,-4.43 ± 0.46,
GGAGAGCAAUAUUACGAUUA,,-0.884 ± 0.37
GGAGAGCAAUAUUACGAUUG,-2.75 ± 0.26,-2.17 ± 0.43
GGAGAGCAAUAUUACGAUUU,-1.65 ± 0.24,0.185 ± 0.43
GGAGAGCAAUAUUACGCCUC,-3.07 ± 0.36,
GGAGAGCAAUAUUACGCGAA,-2.02 ± 0.24,-2.72 ± 0.36
GGAGAGCAAUAUUACGCGCA,-1.36 ± 0.19,-0.414 ± 0.21
GGAGAGCAAUAUUACGCGGG,-2.21 ± 0.35,
GGAGAGCAAUAUUACGGAGA,-2.3 ± 0.29,
GGAGAGCAAUAUUACGGGAC,-2.46 ± 0.23,-0.231 ± 0.32
GGAGAGCAAUAUUACGGGCU,-2.73 ± 0.27,
GGAGAGCAAUAUUACGGUCA,-1.14 ± 0.2,-2.11 ± 0.36
GGAGAGCAAUAUUACGGUGG,-3.5 ± 0.28,-2.25 ± 0.23
GGAGAGCAAUAUUACGUCCG,-1.5 ± 0.1,-0.937 ± 0.13
GGAGAGCAAUAUUACGUGGG,-3.07 ± 0.44,-2.28 ± 0.33

Sequence,self-splicing fitness (ln) (30 °C),self-splicing fitness (ln) (37 °C)
GGAGAGCAAUAUUACGUUCC,,-2 ± 0.28
GGAUAGCAAUAUUACGAACU,-0.708 ± 0.15,-0.573 ± 0.19
GGAUAGCAAUAUUACGAAGC,-2.6 ± 0.48,
GGAUAGCAAUAUUACGACAA,-0.923 ± 0.12,-0.865 ± 0.14
GGAUAGCAAUAUUACGACUG,-0.737 ± 0.15,-1.08 ± 0.19
GGAUAGCAAUAUUACGAGCA,-1.26 ± 0.26,-1.05 ± 0.14
GGAUAGCAAUAUUACGAGGA,-3.28 ± 0.25,-1.15 ± 0.17
GGAUAGCAAUAUUACGAGUU,-1.59 ± 0.1,-1.64 ± 0.14
GGAUAGCAAUAUUACGAUUG,-1.55 ± 0.15,-1.44 ± 0.24
GGAUAGCAAUAUUACGAUUU,0.317 ± 0.072,0.459 ± 0.09
GGAUAGCAAUAUUACGCCCA,-1.36 ± 0.49,-1.39 ± 0.33
GGAUAGCAAUAUUACGCCCU,-2.08 ± 0.14,-2.27 ± 0.17
GGAUAGCAAUAUUACGCGUA,-0.646 ± 0.21,-2.02 ± 0.18
GGAUAGCAAUAUUACGCUUG,-1.81 ± 0.12,-1.11 ± 0.16
GGAUAGCAAUAUUACGGAUA,,-1.56 ± 0.26
GGAUAGCAAUAUUACGGCCA,-0.925 ± 0.19,-0.211 ± 0.18
GGAUAGCAAUAUUACGUACU,-0.979 ± 0.096,0.0901 ± 0.14
GGAUAGCAAUAUUACGUAUA,-2.53 ± 0.2,-0.564 ± 0.15
GGAUAGCAAUAUUACGUCAA,-1.09 ± 0.19,0.00829 ± 0.15
GGAUAGCAAUAUUACGUGGA,-3.31 ± 0.21,-2.47 ± 0.21
GGAUAGCAAUAUUACGUGGG,,-0.24 ± 0.16
GGAUAGCAAUAUUACGUGUA,-2.33 ± 0.13,-2.18 ± 0.12
GGAUAGCAAUAUUACGUGUC,-3.16 ± 0.28,
GGAUAGCAAUAUUACGUGUU,-3.31 ± 0.17,-1.63 ± 0.14
GGCAAGCAAUAUUACGACGC,-0.177 ± 0.14,-0.105 ± 0.17

Sequence,self-splicing fitness (ln) (30 °C),self-splicing fitness (ln) (37 °C)
GGCAAGCAAUAUUACGACGG,-2.85 ± 0.16,-2.72 ± 0.2
GGCAAGCAAUAUUACGAUGG,-2.61 ± 0.19,-1.52 ± 0.16
GGCAAGCAAUAUUACGCCGA,-2.14 ± 0.32,-0.337 ± 0.25
GGCAAGCAAUAUUACGCCUC,-2.03 ± 0.13,-1.34 ± 0.12
GGCAAGCAAUAUUACGCCUU,-2.83 ± 0.22,-0.231 ± 0.16
GGCAAGCAAUAUUACGGGGU,-2.5 ± 0.099,-0.776 ± 0.094
GGCAAGCAAUAUUACGGUCA,-0.571 ± 0.09,0.329 ± 0.096
GGCAAGCAAUAUUACGGUUU,-0.376 ± 0.052,0.232 ± 0.069
GGCAAGCAAUAUUACGUACC,-1.35 ± 0.065,-0.299 ± 0.083
GGCAAGCAAUAUUACGUCAC,-3.31 ± 0.22,-0.36 ± 0.17
GGCAAGCAAUAUUACGUCCU,-1.39 ± 0.088,-1.54 ± 0.11
GGCAAGCAAUAUUACGUCGC,-2.66 ± 0.14,-1.38 ± 0.13
GGCAAGCAAUAUUACGUCGG,-3.42 ± 0.2,-2.47 ± 0.32
GGCAAGCAAUAUUACGUUGA,-0.666 ± 0.066,-0.307 ± 0.092
GGCCAGCAAUAUUACGACAG,-4.12 ± 0.25,-3.08 ± 0.35
GGCCAGCAAUAUUACGACCG,-1.21 ± 0.11,-0.323 ± 0.14
GGCCAGCAAUAUUACGAGCC,-2.63 ± 0.26,-2.72 ± 0.29
GGCCAGCAAUAUUACGAUCC,-0.826 ± 0.11,0.0889 ± 0.14
GGCCAGCAAUAUUACGAUCU,-0.383 ± 0.06,-0.133 ± 0.078
GGCCAGCAAUAUUACGCAGG,,-2.78 ± 0.22
GGCCAGCAAUAUUACGCGCG,-0.959 ± 0.089,-0.284 ± 0.12
GGCCAGCAAUAUUACGCUAG,-3.21 ± 0.21,-2.47 ± 0.3
GGCCAGCAAUAUUACGCUCA,-0.637 ± 0.13,-0.183 ± 0.13
GGCCAGCAAUAUUACGCUCG,-2.5 ± 0.15,-0.863 ± 0.13
GGCCAGCAAUAUUACGCUUC,-1.98 ± 0.15,-0.344 ± 0.11
